Measurements taken from patent US20230242658A1 (published 2023).
Positions count from the first letter of the chain named.

B1: PR007137 (bispecific antibody)
light: DIQMTQSPSTLSASVGDRVTVTCRASQSIYIWLAWYQQKPGKAPNLLIYKASSLETGVPSRFSGSGSGTEFTLTISSLQPDDFATYYCQQYYGSSRTFGQGTKVEIKRTVAAPSVFIFPPSDEQLKSGTASVVCLLNNFYPREAKVQWKVDNALQSGNSQESVTEQDSKDSTYSLSSTLTLSKADYEKHKVYACEVTHQGLSSPVTKSFNRGEC
heavy: EVQLVESGGGLVQPGGSLRLSCAASGFTFSSYWMSWVRQAPGKGLEWVANIKQEGSEKYYVDSVKGRFTISRDNAKNSLYLQMNSLRAEDTAVYYCARDRAVAGAFDIWGQGTMVTVSSASTKGPSVFPLAPSSKSTSGGTAALGCLVKDYFPEPVTVSWNSGALTSGVHTFPAVLQSSGLYSLSSVVTVPSSSLGTQTYICNVNHKPSNTKVDKKVEPKSCDKTHTCPPCPAPEAAGAPSVFLFPPKPKDTLMISRTPEVTCVVVDVSHEDPEVKFNWYVDGVEVHNAKTKPREEQYNSTYRVVSVLTVLHQDWLNGKEYKCKVSNKALPAPIEKTISKAKGQPREPQVYTLPPSREEMTKNQVSLTCLVKGFYPSDIAVEWESNGQPENNYKTTPPVLDSDGSFFLYSKLTVDKSRWQQGNVFSCSVMHEALHNHYTQKSLSLSPGGGSGGSEVQLVESGGGVVQPGRSLRLSCAASGFTFSDYYMSWFRQAPGKGLEWVSYISSSGTTIDYADSVKGRFTISRDNAKNSLYLQMNSLRAEDTAVYYCAREREEVAGTLDFDYWGQGTPVTVSS
B2: PR007138 (bispecific antibody)
light: B1 light
heavy: EVQLVESGGGLVQPGGSLRLSCAASGFTFSSYWMSWVRQAPGKGLEWVANIKQEGSEKYYVDSVKGRFTISRDNAKNSLYLQMNSLRAEDTAVYYCARDRAVAGAFDIWGQGTMVTVSSASTKGPSVFPLAPSSKSTSGGTAALGCLVKDYFPEPVTVSWNSGALTSGVHTFPAVLQSSGLYSLSSVVTVPSSSLGTQTYICNVNHKPSNTKVDKKVEPKSCDKTHTCPPCPAPEAAGAPSVFLFPPKPKDTLMISRTPEVTCVVVDVSHEDPEVKFNWYVDGVEVHNAKTKPREEQYNSTYRVVSVLTVLHQDWLNGKEYKCKVSNKALPAPIEKTISKAKGQPREPQVYTLPPSREEMTKNQVSLTCLVKGFYPSDIAVEWESNGQPENNYKTTPPVLDSDGSFFLYSKLTVDKSRWQQGNVFSCSVMHEALHNHYTQKSLSLSPGGGSGGSEVQLVESGGGLVKPGGSLRLSCVTSGFTFSDYYMNWIRQAPGKGQEWVSYISGNGSTIYYADSVKGRFTISRDNAKNSLYLQMNSLRAEDTAVYYCARVRPGGSGNYWDWFDPWGQGTPVTVSS
B3: PR007132 (bispecific antibody)
light: B1 light
heavy: EVQLVESGGGLVQPGGSLRLSCAASGFTFSSYWMSWVRQAPGKGLEWVANIKQEGSEKYYVDSVKGRFTISRDNAKNSLYLQMNSLRAEDTAVYYCARDRAVAGAFDIWGQGTMVTVSSASTKGPSVFPLAPSSKSTSGGTAALGCLVKDYFPEPVTVSWNSGALTSGVHTFPAVLQSSGLYSLSSVVTVPSSSLGTQTYICNVNHKPSNTKVDKKVEPKSCDKTHTCPPCPAPEAAGAPSVFLFPPKPKDTLMISRTPEVTCVVVDVSHEDPEVKFNWYVDGVEVHNAKTKPREEQYNSTYRVVSVLTVLHQDWLNGKEYKCKVSNKALPAPIEKTISKAKGQPREPQVYTLPPSREEMTKNQVSLTCLVKGFYPSDIAVEWESNGQPENNYKTTPPVLDSDGSFFLYSKLTVDKSRWQQGNVFSCSVMHEALHNHYTQKSLSLSPGGGSGGSEVQLVESGGGLVKPGGSLRLSCAASGFTFSDYYMSWIRQAPGKGLEWVSYISSSGSTIYYADSVKGRFTISRDNAKNSLYLQMNSLRAEDTAVYYCARVKPVAGTWDWFDPWGQGTPVTVSS
B4: PR007135 (bispecific antibody)
light: B1 light
heavy: B1 heavy with V465L, Q467K, R470G, S507G, T510S, T511I, A551S, E556A, P571L
B5: PR007133 (bispecific antibody)
light: B1 light
heavy: EVQLVESGGGLVQPGGSLRLSCAASGFTFSSYWMSWVRQAPGKGLEWVANIKQEGSEKYYVDSVKGRFTISRDNAKNSLYLQMNSLRAEDTAVYYCARDRAVAGAFDIWGQGTMVTVSSASTKGPSVFPLAPSSKSTSGGTAALGCLVKDYFPEPVTVSWNSGALTSGVHTFPAVLQSSGLYSLSSVVTVPSSSLGTQTYICNVNHKPSNTKVDKKVEPKSCDKTHTCPPCPAPEAAGAPSVFLFPPKPKDTLMISRTPEVTCVVVDVSHEDPEVKFNWYVDGVEVHNAKTKPREEQYNSTYRVVSVLTVLHQDWLNGKEYKCKVSNKALPAPIEKTISKAKGQPREPQVYTLPPSREEMTKNQVSLTCLVKGFYPSDIAVEWESNGQPENNYKTTPPVLDSDGSFFLYSKLTVDKSRWQQGNVFSCSVMHEALHNHYTQKSLSLSPGGGSGGSEVQLEESGGGLVKPGGSLRLSCAASGFTFSDYYMSWFRQAPGKGLEWVSYISSSGSITDYADAVKGRFNISRDNAKNSLYLQMNSLRAEDTAVYYCAREREAVAGTLDFDNWGQGTLVTVSS
B6: PR007130 (bispecific antibody)
light: B1 light
heavy: EVQLVESGGGLVQPGGSLRLSCAASGFTFSSYWMSWVRQAPGKGLEWVANIKQEGSEKYYVDSVKGRFTISRDNAKNSLYLQMNSLRAEDTAVYYCARDRAVAGAFDIWGQGTMVTVSSASTKGPSVFPLAPSSKSTSGGTAALGCLVKDYFPEPVTVSWNSGALTSGVHTFPAVLQSSGLYSLSSVVTVPSSSLGTQTYICNVNHKPSNTKVDKKVEPKSCDKTHTCPPCPAPEAAGAPSVFLFPPKPKDTLMISRTPEVTCVVVDVSHEDPEVKFNWYVDGVEVHNAKTKPREEQYNSTYRVVSVLTVLHQDWLNGKEYKCKVSNKALPAPIEKTISKAKGQPREPQVYTLPPSREEMTKNQVSLTCLVKGFYPSDIAVEWESNGQPENNYKTTPPVLDSDGSFFLYSKLTVDKSRWQQGNVFSCSVMHEALHNHYTQKSLSLSPGGGSGGSEVQLLESGGGLVQPGGSLRLSCAASGFTFSNYAMSWFRQPPETGLKWVSSIDASGGDTYYADSVKGRFTISRDNSKNTLYLQMNSLRAEDTAVYYCAKEGSHGTDDSHYDVDVWGQGTTVTVSS
B7: PR007142 (bispecific antibody)
light: B1 light
heavy: B2 heavy with V477A, T478A, N489S, Q499L, G507N, P573M
B8: PR007139 (bispecific antibody)
light: B1 light
heavy: B5 heavy with E459V, F491I, I511T, T512I, A517S, N523T, A556E, F563Y
B9: PR007136 (bispecific antibody)
light: B1 light
heavy: B5 heavy with E459V, I511T, T512Q, A517S, N523T, A556P, L571P
B10: PR007149 (bispecific antibody)
light: B1 light
heavy: B2 heavy with V477T, I491V, Q499L, G507N

Biological target: human PD-L1 on CHO-K1 cells (human, UniProt Q9NZQ7 19-290)
Assay: FACS; MDA-MB-231 cells

Chain of human PD-L1 on CHO-K1 cells (Q9NZQ7 19-290): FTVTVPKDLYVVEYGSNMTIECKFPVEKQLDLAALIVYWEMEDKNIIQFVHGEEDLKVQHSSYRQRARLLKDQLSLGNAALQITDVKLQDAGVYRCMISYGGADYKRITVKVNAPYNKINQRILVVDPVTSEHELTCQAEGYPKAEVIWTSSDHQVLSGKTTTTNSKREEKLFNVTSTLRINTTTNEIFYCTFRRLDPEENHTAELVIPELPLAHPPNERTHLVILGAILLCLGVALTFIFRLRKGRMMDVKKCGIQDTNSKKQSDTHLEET

| EC50 [nM] | Binder |
| --- | --- |
| 0.203 | B1 |
| 0.202 | B2 |
| 0.22 | B3 |
| 0.299 | B4 |
| 0.216 | B5 |
| 0.161 | B6 |
| 0.263 | B7 |
| 0.257 | B8 |
| 0.253 | B9 |
| 0.206 | B10 |

Biological target: T1, human 4-1BB on CHO-K1 cells (human, UniProt Q07011 24-255)
Assay: FACS

| EC50 [nM] | Binder |
| --- | --- |
| 3.15 | B2 |
| 23.8 | B7 |
| 6.84 | B8 |
| 2.36 | B10 |

Biological target: T1, human 4-1BB on CHO-K1 cells
Assay: FACS
Remark: another data set of the same source
Target sequence in this assay (Q07011 24-255): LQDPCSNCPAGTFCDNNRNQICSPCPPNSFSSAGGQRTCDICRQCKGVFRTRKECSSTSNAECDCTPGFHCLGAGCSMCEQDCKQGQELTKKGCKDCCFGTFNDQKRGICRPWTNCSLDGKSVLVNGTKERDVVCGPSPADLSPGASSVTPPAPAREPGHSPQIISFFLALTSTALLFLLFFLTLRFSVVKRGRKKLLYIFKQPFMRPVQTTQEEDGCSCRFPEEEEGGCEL

| EC50 [nM] | Binder |
| --- | --- |
| 4.65 | B1 |
| 5.58 | B3 |
| 12.9 | B4 |
| 5.06 | B5 |
| 2.06 | B6 |
| 8.74 | B9 |
